Laboratory results taken from patent US11052132B2, “Methods and compositions for treating cystic fibrosis” (PHASEBIO PHARMACEUTICALS, INC., priority 2014, dated 2021).

Experiments:
F508del-CFTR [1] = target: T1, F508del-CFTR (Homo sapiens, UniProt P13569, DEL508-508); assay: Iodide efflux assay on JME/CF15 cells (rescue of F508del-CFTR function); type: cell-based; details: for effect on iodide efflux, alone / plateau concentration (iodide efflux rate) / EC50: JME/CF15 cells at 37° C.; for effect on iodide efflux, alone: acute treatment with 1 μM VX770 alone (FIG. 6A); for effect on iodide efflux in combination with VX-770: 350 nM PB1046 18 hours or 140 nM PB1120 24 hours, plus acute 1 μM VX-770 (FIG. 6B, C); for correct and/or potentiate the activity of F508del-CFTR (iodide efflux) compared with VX-809 and VX-661: 37° C., 900 nM VIP 24 h, 1 μM PB1120 24 h, 1.2 μM PB1046 18 h, versus 1 μM VX809 24 h, 3 μM VX661 24 h (FIG. 5); for plateau concentration (iodide efflux rate) / EC50: pre-incubated 2 hours at 30-3,500 nM, then cAMP activator cocktail, n=3-5; for EC50: read-out: EC50 (iodide efflux rate)
T1 construct: A human nasal epithelial cell line JME/CF15, derived from a Cystic Fibrosis patient homozygous for the F508del mutation; endogenous in cells; host or cells: JME/CF15 human nasal epithelial cell line (CF patient, F508del homozygous)
T1 sequence (P13569 with tags, fused parts or gaps DEL508-508): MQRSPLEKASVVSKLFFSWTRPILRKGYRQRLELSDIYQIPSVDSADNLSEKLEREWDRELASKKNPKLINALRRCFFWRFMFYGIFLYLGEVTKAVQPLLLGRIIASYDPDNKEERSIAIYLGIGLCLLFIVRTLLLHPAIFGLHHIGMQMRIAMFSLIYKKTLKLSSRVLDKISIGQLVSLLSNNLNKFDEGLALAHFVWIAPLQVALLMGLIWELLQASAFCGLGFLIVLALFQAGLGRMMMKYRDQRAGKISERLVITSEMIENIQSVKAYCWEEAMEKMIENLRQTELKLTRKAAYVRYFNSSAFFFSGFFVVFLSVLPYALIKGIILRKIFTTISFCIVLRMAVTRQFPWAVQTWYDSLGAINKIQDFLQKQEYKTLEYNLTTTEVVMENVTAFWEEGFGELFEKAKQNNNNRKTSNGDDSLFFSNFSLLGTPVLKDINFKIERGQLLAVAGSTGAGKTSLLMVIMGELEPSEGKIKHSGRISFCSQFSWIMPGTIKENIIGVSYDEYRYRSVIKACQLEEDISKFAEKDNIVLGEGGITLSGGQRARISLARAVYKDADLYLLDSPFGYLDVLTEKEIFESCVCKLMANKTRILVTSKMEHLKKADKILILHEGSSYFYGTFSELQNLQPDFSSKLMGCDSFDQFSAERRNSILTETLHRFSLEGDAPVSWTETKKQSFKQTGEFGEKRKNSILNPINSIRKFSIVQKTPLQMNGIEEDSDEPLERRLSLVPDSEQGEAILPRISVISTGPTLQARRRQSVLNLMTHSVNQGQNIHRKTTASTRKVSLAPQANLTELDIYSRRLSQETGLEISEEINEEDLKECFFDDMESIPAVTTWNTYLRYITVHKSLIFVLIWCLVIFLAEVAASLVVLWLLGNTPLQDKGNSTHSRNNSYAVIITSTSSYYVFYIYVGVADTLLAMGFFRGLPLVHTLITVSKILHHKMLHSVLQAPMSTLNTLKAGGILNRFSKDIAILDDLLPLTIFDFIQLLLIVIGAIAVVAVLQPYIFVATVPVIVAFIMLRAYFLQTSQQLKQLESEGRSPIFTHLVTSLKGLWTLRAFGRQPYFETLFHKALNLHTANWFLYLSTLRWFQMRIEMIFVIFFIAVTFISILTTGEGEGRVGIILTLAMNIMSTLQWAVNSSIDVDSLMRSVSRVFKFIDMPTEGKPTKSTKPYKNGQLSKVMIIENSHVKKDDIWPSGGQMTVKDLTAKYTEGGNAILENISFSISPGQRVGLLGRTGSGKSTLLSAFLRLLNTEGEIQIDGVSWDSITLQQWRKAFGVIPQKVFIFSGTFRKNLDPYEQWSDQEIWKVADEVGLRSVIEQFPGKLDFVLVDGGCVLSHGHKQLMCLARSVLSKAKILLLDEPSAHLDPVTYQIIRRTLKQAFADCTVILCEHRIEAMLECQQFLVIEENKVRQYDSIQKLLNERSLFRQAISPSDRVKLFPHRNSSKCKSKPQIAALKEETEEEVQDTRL
Method: A human nasal epithelial cell line JME/CF15, derived from a Cystic Fibrosis patient homozygous for the F508del mutation (Jefferson (1990)) was used to evaluate the effect of VIP compounds on CFTR protein function. Cells were cultured at 37° C. with at 5% CO2— 95% humidity in DMEM-F12 with 10% FBS and supplemented with transferrin (5 μg/ml), triiodothyronine (2 nM), insulin (5 μg/ml), hydrocortisone (1.1 μM), EGF (1.64 nM), epinephrine (5.5 μM), and adenine (18 μM). Cells were maintained at 37° C. and incubated with […] VIP, 1.2 μM PB1046 (SEQ ID NO: 15), or 1 μM PB1120 (SEQ ID NO: 20) for 18 or 24 hours before the assaying for iodide efflux. For comparison, cells were incubated with the CFTR correctors VX-809 (lumacaftor) or VX-661.
To evaluate the effect of test compounds on CFTR protein function, the activity of the CFTR chloride channel was determined by studying the efflux of iodide ions using an iodide sensitive electrode. Cells were incubated with NaI loading buffer (136 mM NaI, 3 mM KNO3, 2 mM Ca(NO3), 11 mM glucose, 20 mM HEPES, pH 7.4) for 1 hour at room temperature. Extracellular NaI solution was then removed and replaced with efflux buffer in which NaI was replaced with NaNO3. Samples were taken and replaced at 1 minute intervals. The first 3 samples taken before addition of the CFTR activation cocktail (time 0-2 min) were used to establish a stable baseline of ion efflux. CFTR activation cocktail (150 μM cpt-cAMP+1 mM IBMX+10 μM forskolin) was included in the efflux buffer from time 3 minutes. NaI concentration was then measured using an iodide sensitive electrode moved over each sample by a computerised autosampler and the NaI efflux rate constant k (min^−1) was calculated. Iodide efflux peaks (maximum efflux rate during stimulation—basal level) were compared.
Iodide efflux rates were measured on JME/CF15 cells maintained at 37° C. and pre-incubated with VIP, PB1046, or PB1120 at 30-3,500 nM for 2 hours. […] Rescued F508del-CFTR was stimulated by a cAMP activator cocktail added to the efflux buffer. […] CFTRinh172 (20 μM) was included in the incubation, confirming that the iodide efflux was mediated by CFTR.
To study the effects of administration of PB1120 or PB1046 together with CFTR potentiators or CFTR correctors, iodide efflux assays were performed as described in Example 1.

F508del-CFTR [2] = assay: Immunoblotting / immunostaining of F508del-CFTR maturation and membrane expression in JME/CF15 cells; type: cell-based, human; details: JME/CF15 cells at 37° C., incubated with compound for 24 hours (FIG. 4)
Method: JME/CF15 cells were immunostained for CFTR (A).
Immunoblotting was performed to visualize the […] of the F508del-CFTR in the epithelial cells treated with VIP, PB1120, or PB1046.

Row | Molecule | iodide efflux activity rescued by VIP therapeutics when the CFTR inhibitor is included (F508del-CFTR [1]; CFTRinh172 20 μM, 30 minutes before and during the efflux experiments (FIG. 3)) | effect on iodide efflux, alone (F508del-CFTR [1]) | effect on iodide efflux, alone (F508del-CFTR [1]; listed as VX770) | effect on iodide efflux in combination with VX-770 (F508del-CFTR [1]) | effect on iodide efflux in combination with VX-809 (F508del-CFTR [1]; 1 μM PB1120 and 1 μM VX-809 for 24 hours (FIG. 7)) | correct and/or potentiate the activity of F508del-CFTR (iodide efflux) compared with VX-809 and VX-661 (F508del-CFTR [1]) | plateau concentration (iodide efflux rate) (F508del-CFTR [1]) | EC50 (F508del-CFTR [1]) | F508del-CFTR maturation and membrane expression (F508del-CFTR [2])
1 | O=C(O)c1ccc(/C=C2\SC(=S)N(c3cccc(C(F)(F)F)c3)C2=O)cc1 [CFTRinh172, reference compound] | significantly reduced | – | – | – | – | – | – | – | –
2 | CC(C)(C)c1cc(C(C)(C)C)c(NC(=O)c2c[nH]c3ccccc3c2=O)cc1O [VX-770, ivacaftor, reference compound] | – | no effect | did not produce any significant stimulation | – | – | – | – | – | –
3 | PB1120: long lasting, stable VIP therapeutic which includes ELP sequences; VIP-ELP fusion, SEQ ID NO: 20 (protein, VIP ELP1-120) HSDAVFTDNYTRLRKQMAVKKYLNSILNVPGVGVPGVGVPGGGVPGAGVPGVGVPGVGVPGVGVPGGGVPGAGVPGGGVPGVGVPGVGVPGGGVPGAGVPGVGVPGVGVPGVGVPGGGVPGAGVPGGGVPGVGVPGVGVPGGGVPGAGVPGVGVPGVGVPGVGVPGGGVPGAGVPGGGVPGVGVPGVGVPGGGVPGAGVPGVGVPGVGVPGVGVPGGGVPGAGVPGGGVPGVGVPGVGVPGGGVPGAGVPGVGVPGVGVPGVGVPGGGVPGAGVPGGGVPGVGVPGVGVPGGGVPGAGVPGVGVPGVGVPGVGVPGGGVPGAGVPGGGVPGVGVPGVGVPGGGVPGAGVPGVGVPGVGVPGVGVPGGGVPGAGVPGGGVPGVGVPGVGVPGGGVPGAGVPGVGVPGVGVPGVGVPGGGVPGAGVPGGGVPGVGVPGVGVPGGGVPGAGVPGVGVPGVGVPGVGVPGGGVPGAGVPGGGVPGVGVPGVGVPGGGVPGAGVPGVGVPGVGVPGVGVPGGGVPGAGVPGGGVPGVGVPGVGVPGGGVPGAGVPGVGVPGVGVPGVGVPGGGVPGAGVPGGGVPGVGVPGVGVPGGGVPGAGVPGVGVPGVGVPGVGVPGGGVPGAGVPGGGVPGWP | – | – | – | synergistic effect | synergism | equivalent or greater extent than VX-809 and VX-661 | 1000 nM | 140 nM | corrected
4 | PB1046: long lasting, stable VIP therapeutic which includes ELP sequences; VIP-ELP fusion, SEQ ID NO: 15 (protein, M-VIP ELP1-120) MHSDAVFTDNYTRLRKQMAVKKYLNSILNVPGVGVPGVGVPGGGVPGAGVPGVGVPGVGVPGVGVPGGGVPGAGVPGGGVPGVGVPGVGVPGGGVPGAGVPGVGVPGVGVPGVGVPGGGVPGAGVPGGGVPGVGVPGVGVPGGGVPGAGVPGVGVPGVGVPGVGVPGGGVPGAGVPGGGVPGVGVPGVGVPGGGVPGAGVPGVGVPGVGVPGVGVPGGGVPGAGVPGGGVPGVGVPGVGVPGGGVPGAGVPGVGVPGVGVPGVGVPGGGVPGAGVPGGGVPGVGVPGVGVPGGGVPGAGVPGVGVPGVGVPGVGVPGGGVPGAGVPGGGVPGVGVPGVGVPGGGVPGAGVPGVGVPGVGVPGVGVPGGGVPGAGVPGGGVPGVGVPGVGVPGGGVPGAGVPGVGVPGVGVPGVGVPGGGVPGAGVPGGGVPGVGVPGVGVPGGGVPGAGVPGVGVPGVGVPGVGVPGGGVPGAGVPGGGVPGVGVPGVGVPGGGVPGAGVPGVGVPGVGVPGVGVPGGGVPGAGVPGGGVPGVGVPGVGVPGGGVPGAGVPGVGVPGVGVPGVGVPGGGVPGAGVPGGGVPGVGVPGVGVPGGGVPGAGVPGVGVPGVGVPGVGVPGGGVPGAGVPGGGVPGWP | – | – | – | synergistic effect | – | equivalent or greater extent than VX-809 and VX-661 | 1200 nM | 355 nM | corrected
